Consider one molecule from PMC2114603.

The experiment concerns the target lymphoma 4.1-like protein (68/65-kD phosphoprotein doublet) of mouse T-lymphoma cells (mouse (endogenous in BW 5147)). The experiment in a line: co-sedimentation. The settings on record: scale: gp 25 per 68/65-kD protein.

Sequence of lymphoma 4.1-like protein (68/65-kD phosphoprotein doublet) of mouse T-lymphoma cells (mouse (endogenous in BW 5147)) (P48193 whole entry): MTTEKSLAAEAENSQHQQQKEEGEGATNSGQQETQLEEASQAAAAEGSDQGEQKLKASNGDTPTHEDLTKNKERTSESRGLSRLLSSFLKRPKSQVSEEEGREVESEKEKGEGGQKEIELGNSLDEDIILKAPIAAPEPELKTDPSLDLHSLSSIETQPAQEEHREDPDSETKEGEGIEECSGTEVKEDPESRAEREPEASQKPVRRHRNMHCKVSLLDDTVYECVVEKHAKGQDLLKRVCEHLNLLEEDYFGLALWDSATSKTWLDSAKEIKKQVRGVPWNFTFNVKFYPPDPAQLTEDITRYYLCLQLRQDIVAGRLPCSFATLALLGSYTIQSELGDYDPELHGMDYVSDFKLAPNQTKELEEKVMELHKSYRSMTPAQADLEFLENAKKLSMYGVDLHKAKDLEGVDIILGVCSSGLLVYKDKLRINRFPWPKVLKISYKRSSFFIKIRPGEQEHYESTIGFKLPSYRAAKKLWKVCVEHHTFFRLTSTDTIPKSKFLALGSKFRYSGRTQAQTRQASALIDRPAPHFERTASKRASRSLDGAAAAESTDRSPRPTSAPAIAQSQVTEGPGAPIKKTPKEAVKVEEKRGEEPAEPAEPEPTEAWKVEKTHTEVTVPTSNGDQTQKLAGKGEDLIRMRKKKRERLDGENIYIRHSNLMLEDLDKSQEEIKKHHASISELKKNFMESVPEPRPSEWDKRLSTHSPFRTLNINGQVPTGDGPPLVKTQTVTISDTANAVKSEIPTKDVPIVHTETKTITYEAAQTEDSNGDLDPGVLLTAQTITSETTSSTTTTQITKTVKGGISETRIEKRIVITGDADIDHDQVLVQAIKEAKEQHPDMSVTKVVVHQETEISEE

B1: Thy-1 glycoprotein (gp 25) of mouse T-lymphoma cells (natural protein)
chain: QKVTSLTACLVNQNLRLDCRHENNTKDNSIQHEFSLTREKRKHVLSGTLGIPEHTYRSRVTLSNQPYIKVLTLANFTTKDEGDYFCELQVSGANPMSSNKSISVYRDKLVKC
modifications: glycoprotein ([3H]glucosamine-labelled); 125I-labelled or unlabelled
Usually stoichiometry N stands for a count of units in the complex or per binding partner. B1 gave a stoichiometry N of 4.
